# Laboratory results: patent US20240115742A1, “FLUORINATED FIBERS FOR MULTIMODAL 1H AND 19F MRI, ULTRASOUND, FLUORESCENCE DETECTION AND CONFORMATIONAL AND TEMPERATURE DETECTION BY 19F MRS” (New York University, priority 2022, published 2024)
# Square brackets hold non-standard residues; d marks the D form. Ends that are not written are not given here. LTF = trifluoroleucine
# How the values were obtained:
# TEM of protein fibers = assay type: physicochemical; settings: for average protein fiber diameter (TEM): fibers, 50 mM NaH2PO4 pH 4.0
# Description: Transmission Electron Microscopy. Transmission electron microscopy (TEM) images were taken with a FEI Talos L120C transmission electron microscope. Protein fiber samples were diluted to 50 μM and 3 μL was spotted on Formvar/carbon-coated copper grids followed by 5 μL wash with water, and 3 μL staining with 1% v/v uranyl acetate solution each with incubation times of 1 min at RT. Fibrils were sized in ImageJ software (Version 1.52q).
# Transmission Electron Microscopy. Transmission electron microscopy (TEM) images were taken with a FEI Talos L120C transmission electron microscope. Samples were diluted to 50 μM and 3 μL was spotted on Formvar/carbon-coated copper grids followed by a 5 μL wash with water, and 3 μL staining with 1% v/v uranyl acetate solution each with incubation times of 1 min. Between steps, filter paper was used to wick the grids. Following imaging, fibrils were sized in ImageJ software (Version 1.52q).
# Cryo-EM of Q5 gel = assay type: physicochemical
# Description: Cryo-Electron Microscopy. Lacey Carbon 300 mesh copper grids (Ted Pella) were used for cryo-EM imaging on FEI TALOS F200C with Ceta 16M camera at 200 kV accelerating voltage. PELCO easiGlow™ Glow Discharge Cleaning System was also used for the plasma treatment of the grids.
# Cryo-EM. Cryo-EM samples were prepared with the Vitrobot system (Thermo Fisher Scientific) which can help vitrify a thin solution layer at low temperature. Approximately 4 μl of sample solution was applied to the grids in the chamber of Vitrobot at 4° C. and 100% humidity. The sample solution was incubated for 10 s and then the grid was blotted three times. Blotting lasted 1 s for each time. […] Then, the grid was transferred into liquid nitrogen. The cryo-EM holder was kept at −175° C. to prevent solvent crystallization during the imaging. Coarse-grained Model Details. Each bond is defined by Equation 10: […]
# [1] = Small angle X-ray scattering of Q5; assay type: physicochemical
# Description: Small Angle X-ray Scattering (SAXS). SAXS was employed to measure interparticle interactions, structure, and shape of Q5 since it was capable of gelation in the instrument holder within 24 h. SAXS experiments were performed at the National Synchrotron Light Source-II (NSLS-II) Beamline 16-ID (LiX) at Brookhaven National Laboratory.
# Small Angle X-ray Scattering (SAXS). All measurements were taken within 12 h of concentration of the protein from the dialysis bag. To study Q5 as an isolated particle, 150 μM (˜1 mg/mL) protein and dialysis buffer (50 mM Tris 500 mM NaCl pH 8.0) was loaded into a flow cell and measured in the q range […] to 3.19 Å^−1. The Q5 protein transition from solution to hydrogel was measured by incubation at 4° C. of 3 mM of Q5 protein in an eight-slot holder capable of loading 30 μL of each sample. Between measurements, the holder was returned for incubation at 4° C. Independent slots were used to load six samples of the Q5 hydrogel in solution including one for the empty cell and one for the dialysis buffer. Each slot was measured once incrementally over a 24 h incubation window to negate the impact of radiation (except for the measurement made at 24 h which was measured from the previous time point sample due to sample error in the last slot holder, however, a negligible impact of radiation was observed). Similarly, Q5 hydrogel measurements made at 3 mM and 4° C. were measured in the q range 0.005 Å^−1 to 3.19 Å^−1. Kratky plots were calculated by Guinier analysis of Rg and I(0) values. Flory exponents were calculated using MFF fit by Sosnick group online tool. Pair distance distribution function, P(r), was calculated using primus (ATSAS software).
# [2] = system: type 2 mouse diabetic wound; assay: Diabetic mouse wound model; assay type: in vivo; settings: vs exosomes alone and untreated mice
# [3] = Passive microrheology (multiple particle tracking); assay type: physicochemical; settings: 4 °C
# Description: Microrheology. Protein was concentrated to 2 mM, as measured by BCA assay, and immediately aliquoted 27.7 μL into a 200 μL PCR tube. 1% v/v (or 0.3 μL) of […] red polystyrene fluorometric beads (FluoSpheres) were then added to the sample. A glass capillary tube was then loaded with sample by capillary action and sealed to prevent evaporation while being affixed to a microscopy slide using two-component fast-curing epoxy (JB Weld). Samples were then imaged at 0 h as a starting measurement and then every 12 h using a Leica DMI4000b inverted microscope equipped with a Leica DFC310 FX 1.4 megapixel camera at 40× magnification with 2×2 binning. […] Each image series was recorded for a total of 300 frames with a lag time (i) of 0.037 s between each frame. Relaxation exponents i.e. the logarithmic slopes of particle mean-squared displacements (MSDs) with respect to lag time as determined by multiple particle tracking (MPT) analysis were used to determine when equilibration of the hydrogel was complete and measurements were no longer recorded (60 h in this case). […]
# Gelation kinetics of the hydrogels were assessed using passive microrheology (FIG. 61a-e). Time to gelation was measured immediately after concentration to 2 mM at 4° C. by incubating with 1 μm fluorescent tracer beads added to the protein in solution state at a final concentration of 1% (v/v). […]
# [4] = measured in Q previously; cited from earlier work
substance,measurement,setting,value
"Q3: Q variant with V44I pore mutation, SEQ ID NO: 12 (MRGSHHHHHHGSIEGRVKEILFLKNTAYQMLLELKETNEALYDIRHLLQQQSKL) [Protein Q3]",average protein fiber diameter (TEM),TEM of protein fibers,130±27 nm
"Q5: Q hydrogel variant from Rosetta Monte Carlo search, SEQ ID NO: 14 (MRGSHHHHHHGSIEGRVKEITFIKKTIEQIAEEMKEINKAIHDIRHALENISKK) [Protein Q5]",fiber diameter (cryo-EM),"Cryo-EM of Q5 gel; 0.5 mM, n=100",3.4±0.7 nm
same,fiber diameter (cryo-EM),"Cryo-EM of Q5 gel; 1 mM, n=100",5.6±2.1 nm
same,fiber spacing by FFT,Cryo-EM of Q5 gel; 2 mM,14-17 nm
same,crosslinked fiber diameter (cryo-EM),"Cryo-EM of Q5 gel; 2 mM, n=100",5.8±1.5 nm
same,P(r) distribution centre,"[1]; 150 μM, 0 h at 4 °C",22.5 Å
same,average step-size increase of P(r) peaks,"[1]; 3 mM, 24 h at 4 °C",39.1±4.2 Å
same,cylinder length,[1]; assuming cylindrical shape,6.8±0.4 nm
same,diabetic wound closure,[2],faster time to closure
same,time to complete gelation (sol-gel transition),[3],≤ 24 h
"Q2LTF: protein-engineered fluorinated coiled-coil fiber, Q2 with trifluoroleucine, SEQ ID NO: 20 (MRGSHHHHHHGSIEGRVKE[LTF][LTF]F[LTF]KKTAEQM[LTF]EE[LTF]KETNKA[LTF]HDVRH[LTF][LTF]ENQSK[LTF]; ends and bridges not checked) [Protein Q2LTF]",fiber assembly size by TEM,"TEM of protein fibers; 2 mM, 50 mM Tris, 500 mM NaCl, pH 8.0, 4 °C, n=20",215.8±38.6 nm
same,diameter of large fiber aggregates,TEM of protein fibers; as E88,≤ 840 nm
same,median fiber diameter,TEM of protein fibers; as E88,181.7 nm
same,striation (protofibril) size by TEM,TEM of protein fibers; n=20,3.6±0.8 nm
"Q2: coiled-coil protein redesigned from Q for reduced lateral assembly, SEQ ID NO: 11 (MRGSHHHHHHGSIEGRVKELLFLKKTAEQMLEELKETNKALHDVRHLLENQSKL) [Protein Q2]",average protein fiber diameter (TEM),TEM of protein fibers,91±37 nm
"Q: rationally designed pentameric coiled-coil derived from C, SEQ ID NO: 23 (MRGSHHHHHHGSIEGRVKEITFLKNTAPQMLRELQETNAALQDVRELLRQQSKL) [reference compound]",protofibril diameter,[4],3.5±0.5 nm
same,average protein fiber diameter (TEM),TEM of protein fibers,208±82 nm
